Among the data in patent US20230250154A1 are IC50 needed to inhibit cartilage catabolism, IC50, inhibition of cartilage catabolism in bovine cartilage explants and Maximum inhibition of cartilage catabolism in bovine cartilage explants values, retold here.

Test [1] has as its target ADAMTS4 (human) (UniProt O75173). Nature of the test: cell-based or functional assay.
For test [2], the target named is ADAMTS5 (human) (UniProt Q9UNA0). Briefly: cell-based or functional assay.
Chain of ADAMTS5 (human) (Q9UNA0 262-622 limits assumed): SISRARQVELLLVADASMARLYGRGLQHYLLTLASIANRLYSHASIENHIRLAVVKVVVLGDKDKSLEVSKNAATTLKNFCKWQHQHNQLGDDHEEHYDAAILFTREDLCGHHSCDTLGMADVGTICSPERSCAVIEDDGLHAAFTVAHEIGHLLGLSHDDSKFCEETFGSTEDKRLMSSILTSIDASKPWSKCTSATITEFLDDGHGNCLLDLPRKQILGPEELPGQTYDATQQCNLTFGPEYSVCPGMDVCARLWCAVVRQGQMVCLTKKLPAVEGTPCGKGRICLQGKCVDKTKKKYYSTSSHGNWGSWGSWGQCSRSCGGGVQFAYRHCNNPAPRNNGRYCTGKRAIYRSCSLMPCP

Chain of ADAMTS4 (human) (O75173 213-685 limits assumed): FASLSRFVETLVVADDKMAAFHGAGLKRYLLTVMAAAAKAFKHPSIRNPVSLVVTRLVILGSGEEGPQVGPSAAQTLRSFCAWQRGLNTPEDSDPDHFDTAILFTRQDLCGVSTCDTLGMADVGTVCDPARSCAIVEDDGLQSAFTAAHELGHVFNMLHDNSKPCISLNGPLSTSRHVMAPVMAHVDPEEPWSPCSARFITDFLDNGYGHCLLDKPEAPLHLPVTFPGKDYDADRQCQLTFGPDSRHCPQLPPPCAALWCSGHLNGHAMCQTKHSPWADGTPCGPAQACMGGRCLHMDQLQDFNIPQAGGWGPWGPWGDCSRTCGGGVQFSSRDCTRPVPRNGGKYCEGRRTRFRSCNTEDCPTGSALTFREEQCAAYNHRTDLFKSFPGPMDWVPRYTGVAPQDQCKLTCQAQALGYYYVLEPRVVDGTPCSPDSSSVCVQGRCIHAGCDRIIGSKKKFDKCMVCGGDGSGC

On to “purified human A2M (from UniProt P01023 24-1474)”, for which, in test [1], the IC50 needed to inhibit cartilage catabolism turned out to be 3 mg/L. Besides, in test [2], the IC50, inhibition of cartilage catabolism in bovine cartilage explants was 7000 mg/L; the IC50 needed to inhibit cartilage catabolism is 7 mg/L; the Maximum inhibition of cartilage catabolism in bovine cartilage explants came out at 90%.
